Ends that are not written are not given here.
What was measured:
[1] = biological target: T1, His6-tagged human KRas Isoform 4B (residues 1-169) (human, UniProt P01116-2 1-169); experiment: barcoded rapid assay microchip, fitted curves of FIG. 6B (Hill coefficient 1), triplicate
T1 construct: Expressed in E. coli BL21(DE3), purified on Ni-NTA; also called KRas protein; WT KRas protein; not shown: His6 tag from the PQE80 vector

[2] = biological target: T1, His6-tagged human KRas Isoform 4B …; experiment: multi-well sandwich ELISA; ligand on Neutravidin plate, KRas 0-300 µM
Description: (§1) A 96-well Pierce Neutravidin Plate was washed with binding buffer (3×5 minutes at RT) before loading plate with a 1 μM solution of either blank (biotin-PEG₅-NHAc) (singly) or biotinylated PCC ligand (in triplicate). The plate incubated for two hours before washing with binding buffer (3×5 minutes). Blocking buffer was added to each well and the plate blocked for one hour before undergoing washing with binding buffer (3×5 minutes). Each well was loaded with either binding buffer or KRas solution (0→300 μM), and the plate was incubated for 30 minutes. Plate washing with binding buffer (3×5 minutes) preceded incubating the plate with a (1000:1) dilution of 1° antibody (ab) rabbit anti-Ras (CST #3965) in ab buffer for thirty minutes. The plate was washed with binding buffer (3×5 minutes), loaded with a (2000:1) dilution of 2° ab goat anti-rabbit, HRP-linked ab (CST #7074) in ab buffer, and incubated for an additional thirty minutes. The plate was rinsed with binding buffer (3×5 minutes), TBS (1×5 minutes), loaded with a (1:1) mixture of TMB Peroxidase Solution and TMB Peroxidase Solution B, and developed with occasional agitation for 8-12 minutes. After quenching the enzymatic reaction with 1M H₂SO_{4(aq)} (100 μL) the plate was read at λ=450 nm within ten minutes. The data was double background corrected using the ab only absorbance and the dummy ligand absorbance, plotted using Prism GraphPad 7 (Sigmoidal 4PL mode with the Hill coefficient set=1), and an EC₅₀ value was calculated.

[3] = biological target: T1, His6-tagged human KRas Isoform 4B …; experiment: B-RAP surface immunofluorescence assay; ligand on barcode via SAC-DNA, KRas titrated 0-400 µM
Description: After extraction the data is background corrected. The background signal arises from (a) non-specific binding of the primary and secondary antibodies (independent of [KRas]), but can vary across different barcode stripes), and (b) non-specific binding of KRas protein ([KRas] dependent). Background (a) was assessed by measuring the average signal in the null protein well for each stripe. Background (b) was assessed by measuring the average fluorescence for the dummy ligand (Biotin* probe) that was in each well. The background subtracted data was then graphed in Graphpad Prism 7 and fitted to a sigmoidal curve (Hill coefficient=1).
A pre-fabricated PDMS template was aligned onto the DNA barcode microchip, and the microchip was taped into a 10 cm petri dish. The wells on the platform were wet with 50 μL PBST before filling with blocking buffer and placing into a 37° C. incubator for 1 hr. Concurrently, 40 μL 1% BSA in PBS solutions containing 750 nM of a SAC-DNA conjugate and 3.75 μM of one biotinylated PCC ligand or biotin-A₂₀-Cy3 blank were prepared for each SAC-DNA conjugate. The biotinylated ligands were allowed to complex with the SAC protein for one hour before pooling the SAC-DNA-ligand solutions (final [SAC-DNA-ligand conjugates]=50 nM). The blocking buffer was aspirated and each well was loaded with the SAC-DNA-ligand conjugates cocktail for hybridization with the DNA barcode at 37° C. for one hour. The wells were washed with PBST (3×) before loading serially diluted solutions of KRas protein in protein buffer (0 to 400 μM). After shaking at RT for one hour, the wells were rinsed with PBST (5×), making sure to pipet up/down with the first addition of PB ST. A (100:1) dilution of CST rabbit anti-Ras Ab (#39655) in 1° ab buffer was added to each well before shaking at RT for one hour. After rinsing the wells with PBST (3×), the wells were loaded with a (200:1) dilution of Abcam goat anti-rabbit-Alexafluor 647 linked ab (ab150079) in 2° ab buffer before shaking at RT for one hour. A final rinse of the wells with PBST (3×) proceeded peeling off the PDMS slab from the barcode microchip and dipping the barcode into the following solutions: PBS, (1:1) PBS: MQ H₂O, MQ H₂O (2×). After being spun dry, the barcode was read on the Genepix (635 nm, PMT 600, PWR 40% (60 W); 532 nm, PMT 450, PWR 15% (23 W)).

[4] = biological target: T1, His6-tagged human KRas Isoform 4B …; experiment: multi-well sandwich ELISA; ligand on Neutravidin plate, KRas 0-300 µM; footnote b: poorly resolved
Description: as §1

[5] = biological target: T1, His6-tagged human KRas Isoform 4B …; experiment: B-RAP immunofluorescence, 10 µM KRas well, pixel-by-pixel along the barcode lane
[6] = biological target: T1, His6-tagged human KRas Isoform 4B …; experiment: cell-based or functional assay

Binder	EC50 [1]	EC50 [2]	EC50 [3]	EC50 [4]	other results
VEVPY (triazole (positions not given here); not fully specified (bridges); also: 1,4-triazole macrocycle, ring places not given here, propargylglycine click handle, place not given here, biotinylated (biotin NovaTag resin), site not given here, also called VEVPY f2) [L4b]	32.7 µM				
VEVYP (triazole (positions not given here); not fully specified (bridges); also: 1,4-triazole macrocycle, ring places not given here, propargylglycine click handle, place not given here, biotinylated (biotin NovaTag resin), site not given here, also called VEVYP f2) [L5b]		6.87 µM	7.8 µM		
HGIVG (triazole (positions not given here); not fully specified (bridges); also: 1,4-triazole macrocycle, ring places not given here, propargylglycine click handle, place not given here, biotinylated (biotin NovaTag resin), site not given here, Second HPLC fraction; also called HGIVG f2) [L1b]	12.2 µM		1.33 µM	0.76 µM	
GEVVP (triazole (positions not given here); not fully specified (bridges); also: 1,4-triazole macrocycle, ring places not given here, propargylglycine click handle, place not given here, biotinylated (biotin NovaTag resin), site not given here, also called GEVVP f2) [L3b]	19.4 µM				
VEVPY (triazole (positions not given here); not fully specified (bridges); also: 1,4-triazole macrocycle, ring places not given here, propargylglycine click handle, place not given here, biotinylated (biotin NovaTag resin), site not given here, also called VEVPY f1) [L4a]	19.6 µM				
VQVPY (triazole (positions not given here); not fully specified (bridges); also: 1,4-triazole macrocycle, ring places not given here, propargylglycine click handle, place not given here, biotinylated (biotin NovaTag resin), site not given here, also called VQVPY f2) [L7b]	30.3 µM	44.2 µM			
VEVYP (triazole (positions not given here); not fully specified (bridges); also: 1,4-triazole macrocycle, ring places not given here, propargylglycine click handle, place not given here, biotinylated (biotin NovaTag resin), site not given here, also called VEVYP f1) [L5a]			5.23 µM	3.72 µM	

More lines, in order of falling EC50 [1], values ahead:

EC50 [1]	EC50 [2]	EC50 [3]	EC50 [4]	Binder	other results
53.3 µM	7.78 µM			GEVVP (triazole (positions not given here); not fully specified (bridges); also: 1,4-triazole macrocycle, ring places not given here, propargylglycine click handle, place not given here, biotinylated (biotin NovaTag resin), site not given here, also called GEVVP f1) [L3a]	
31.5 µM	25.8 µM			VQVPY (triazole (positions not given here); not fully specified (bridges); also: 1,4-triazole macrocycle, ring places not given here, propargylglycine click handle, place not given here, biotinylated (biotin NovaTag resin), site not given here, also called VQVPY f1) [L7a]	
16.2 µM		0.97 µM	1.65 µM	HGIVG (triazole (positions not given here); not fully specified (bridges); also: 1,4-triazole macrocycle, ring places not given here, propargylglycine click handle, place not given here, biotinylated (biotin NovaTag resin), site not given here, It is one of two HPLC fractions of the same mass; also called HGIVG f1) [L1a]	
16 µM		18.9 µM	159 µM	VTVPY (triazole (positions not given here); not fully specified (bridges); also: macrocycle closed by 1,4-triazole, propargylglycine click handle, other ring residues not given here, also called VTVPY) [L6]	Avg F635 (full centroid) [5]: 17800; Avg F635 (full lane) [5]: 16000; avg F635 (left part centroid) [5]: 15600; avg F635 (middle part centroid) [5]: 19400; avg F635 (right part centroid) [5]: 18500
8.44 µM	25.6 µM	2.8 µM		TDNFY (triazole (positions not given here); not fully specified (bridges); also: macrocycle closed by 1,4-triazole, propargylglycine click handle, other ring residues not given here, also called TDNFY) [L8]	
8.19 µM		3.31 µM	33.2 µM	EGVPV (triazole (positions not given here); not fully specified (bridges); also: macrocycle closed by 1,4-triazole, propargylglycine click handle, other ring residues not given here, also called EGVPV) [L2]	IC50 of the intrinsic GTPase activity of KRas (GTPase-Glo, 10 µM KRas, four-hour incubation) [6]: 24 µM; IC50 of the intrinsic GTPase enzymatic activity of KRas [6]: ~20 µM
